Experimental data as given in patent publication US7868138B2, “Methods for generating polynucleotides having desired characteristics by iterative selection and recombination” (priority 1994, dated 2011).

B1: TEM-1: wild-type bacterial TEM-1 betalactamase, gene on a pUC18 derivative (protein, UniProt P62593 24-286, looked up)
Beta-lactamase TEM: HPETLVKVKDAEDQLGARVGYIELDLNSGKILESFRPEERFPMMSTFKVLLCGAVLSRVDAGQEQLGRRIHYSQNDLVEYSPVTEKHLTDGMTVRELCSAAITMSDNTAANLLLTTIGGPKELTAFLHNMGDHVTRLDRWEPELNEAIPNDERDTTMPAAMATTLRKLLTGELLTLASRQQLIDWMEADKVAGPLLRSALPAGWFIADKSGAGERGSRGIIAALGPDGKPSRIVVIYTTGSQATMDERNRQIAEIGASLIKHW

Experiments:
[1] = tested on: CHO cells; experiment: Fluorescence spectroscopy of CHO cells expressing GFP; format: cell-based, chinese hamster; details: 2 mM sodium butyrate, 'wt' construct
Experimental: The wildtype and the cycle 2 and 3 mutant versions of the GFP gene were transferred into the eukaryotic expression vector Alpha+ (16) as an EcoRI-XbaI fragment. The plasmids were transfected into CHO cells by electroporation of 10^7 cells in 0.8 ml with 40 μg of plasmed at 400V and 250 μF. Transformants were selected using 1 mg/ml G418 for 10-12 days.
Improvements in autonomous characteristics such as self-folding can be tranferable to different cellular environments. After being selected in bacteria, the ‘cycle 3’ mutant GFP was transferred into the eukaryotic Alpha+ vector and expressed in chinese hamster ovary cells (CHO). […] FACS sorting confirmed that the average fluorescence signal of CHO cell clones expressing ‘cycle 3’ was 46-fold greater than cells expressing the ‘wt’ construct (FIG. 18B).

[2] = tested on: E. coli XL1-blue cells; experiment: Minimum inhibitory concentration (MIC) of cefotaxime by plating on cefotaxime plates; format: cell-based
Experimental: The minimum inhibitory concentration (MIC) of cefotaxime on bacterial cells lacking a plasmid was determined by plating 10 μl of a 10^−2 dilution of an overnight bacterial culture (about 1000 cfu) of E. coli XL1-blue cells (Stratagene, San Diego Calif.) on plates with varying levels of cefotaxime (Sigma, St. Louis Mo.), followed by incubation for 24 hours at 37° C.
Growth on cefotaxime is sensitive to the density of cells, and therefore similar numbers of cells needed to be plated on each plate (obtained by plating on plain LB plates). Platings of 1000 cells were consistently performed.
Growth on cefotaxime is dependent on the cell density, requiring that all the MICs be standardized (in our case to about 1,000 cells per plate). […] The 5 largest colonies grown at […] were plated for single colonies twice, and the Sfi1 inserts were analyzed by restriction mapping of the colony PCR products.
After selection, the plasmid of selected clones was transferred back into wild-type E. coli XL1-blue cells (Stratagene, San Diego Calif.) to ensure that none of the measured drug resistance was due to chromosomal mutations.

Row | Molecule | increase of the fluorescence signal [1] | minimum inhibitory concentration of cefotaxime ([2]; 24 hours at 37° C., about 1,000 cells per plate) | MIC ([2]; cefotaxime, mutants in identical plasmid background pUC182Sfi, no literature source in table) [µg/mL]
1 | CCCC(=O)[O-].[Na+] [sodium butyrate] | 4-8 fold |  | 
2 | B1 |  | approximately 0.02 μg/ml | 0.02
